According to paper PMC10940318, “Targeted intracellular delivery of dimeric STINGa by two pHLIP peptides for treatment of solid tumors” (Frontiers in Pharmacology, 2024):
Values joined by “and” are separate entries in the source; they are usually repeats but may differ in a detail not shown here. Identical values can stand only once.

What was measured:
[1] = molecular target: human serum albumin (HSA) (Homo sapiens, UniProt P02768)
Procedure: HSA was initially dissolved to 500 μM in deionized water and further diluted using pH 7.6 phosphate buffer. Dansylamide (DNSA) or dansylglycine (DNSG) (both from Tokyo Chemical Industry) were used as fluorescent markers, which are known to bind to specific sites on HSA. Each well contained 100 μL of sample consisting of the fluorescent marker DNSA or DNSG (1 μM), with different concentrations of pHLIP agents (0, 5, or 10 μM) and concentrations of HSA ranging from 0 μM to 100 μM. Samples were incubated for 2 h at 37°C. […] Fluorescence measurements from each well were performed at 485 nm with excitation at 365 nm at 37°C. As a control, binding of DNSA and DNSG were probed with each agent in absence of HSA. Before the measurements a plate reader optimization test was run. Data were fitted individually and globally using the Michaelis-Menten equation. […] Data was fitted by nonlinear least squares curve fitting procedures employing the Levenberg Marquardt algorithm using Origin 8.5.
Table S1. Competitive binding assay.
Figure S8. HSA binding. […] The global fitting was performed with each set of data and the fitting curves are shown as black, blue and red lines.

[2] = Self-immolation kinetics of the S-S linker and payload release after DTT, by HPLC; type: physicochemical; settings: DTT in 50 mM phosphate buffer, 150 mM NaCl, pH 7.4; HPLC at 0.5-48 h, UV 220/280/325 nm
Procedure: Figure S3. Kinetics of self-immolation of 2pHLIP-dMSA. […] Starting 2pHLIP-dMSA is shown on A.
Figure S4. Self-immolation kinetics of pHLIP-mMSA. HPLC chromatograms recorded at 280 nm and 325 nm for pHLIP-mMSA treated with DTT dissolved in 50 mM phosphate buffer containing 150 mM NaCl pH 7.4 at different time points ([…]) after addition of DTT (A-G) and the retention time for mMSA (H) and pHLIP (I) are shown. Starting pHLIP-mMSA is shown on A.

[3] = Stability in mouse plasma; settings: BALB/c mouse plasma, 200 µM, 0-24 h at 37°C, methanol precipitation, HPLC C18, UV 220/280/325 nm
Procedure: Plasma proteins were precipitated by methanol (1:5 volume ratio of plasma to methanol) and centrifuged for 10 min at […]. The supernatant was collected and analyzed by HPLC using a Zorbax SB-C18 4.6 × 250 mm, 5 μm column with a gradient from 20% to 80% acetonitrile in water containing 0.05% TFA. Chromatograms were recorded at 220 nm, 280 nm and 325 nm.

[4] = test system: CT26 murine colorectal cancer tumors; assay: Treatment of CT26 tumors in mice; type: in vivo, Balb/c mice; settings: CT26 tumors 100-150 mm3, female Balb/c, followed 65 days
Procedure: For the treatment of CT26 tumors, 5 × 10^4 CT26 murine colorectal cancer cells (ATCC, CRL-2638) were injected subcutaneously (SQ) in 100 μL of growth medium into the right flank of female Balb/c mice ranging in age from 7 to 9 weeks (Envigo RMS, Inc.). […] The compounds were dissolved in DMSO as a stock solution and transferred to PBS (vehicle). The residual DMSO in the final solution injected into animals was less than 2%. Tumor volume and body weight were measured 3 times per week throughout the study. Measurements of tumors were performed using calipers, and the tumor volume (V) was calculated with the formula: V=0.52∙L∙W^2 where L is the length and W is the width of the measured tumor. Mice were removed from the study and euthanized when the tumor volume was greater than 2,000 mm^3.

[5] = Body weight of treated mice; type: in vivo, Balb/c mice; settings: two IP injections, 300 µM or 100 µM 500 µL, days 1 and 3
Procedure: For the treatment of CT26 tumors, 5 × 10^4 CT26 murine colorectal cancer cells (ATCC, CRL-2638) were injected subcutaneously (SQ) in 100 μL of growth medium into the right flank of female Balb/c mice ranging in age from 7 to 9 weeks (Envigo RMS, Inc.). […] 2pHLIP-dMSA was given as two IP injections of 300 μM 500 μL or 100 μM 500 μL (low dose). The compounds were dissolved in DMSO as a stock solution and transferred to PBS (vehicle). The residual DMSO in the final solution injected into animals was less than 2%. Tumor volume and body weight were measured 3 times per week throughout the study. Measurements of tumors were performed using calipers, and the tumor volume (V) was calculated with the formula: V=0.52∙L∙W^2 where L is the length and W is the width of the measured tumor. Mice were removed from the study and euthanized when the tumor volume was greater than 2,000 mm^3.

Sequence: ADQDNPWRAYLDLLFPTDTLLLDLLWCG [2pHLIP-dMSA]
- binding to HSA (in words) [1]: strong binding
- time to completion of linker self-immolation and release of payload in its original form [2]: ≤ 48 h
- stability in mouse plasma (in words) [3]: low
- mice survived out of treated, lower dose ([4]; two IP injections of 100 µM 500 µL (l.d.) on days 1 and 3): 4 out of 10 and 4/10
- mice with tumor eradicated / survived out of treated ([4]; two IP injections of 300 µM 500 µL on days 1 and 3): 7/10
- body weight change after treatment (in words) [5]: temporary weight loss followed by complete recovery and regain of weight
